Assays:
Type in all cases: in vivo
[1] = system: Arabidopsis thaliana T1 plants; test: Isoxaflutole tolerance of transgenic Arabidopsis thaliana T1 plants (spray, bleached leaf area grade, damage score); details: for Classification and statistics of the grade of pesticide damage Grade 0 / Classification and statistics of the grade of pesticide damage Grade 1 / Classification and statistics of the grade of pesticide damage Grade 2 / Classification and statistics of the grade of pesticide damage Grade 3: number of plants in grade;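 as to Scores: Weighted damage index from 0 to 100 where higher means more damage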
Summary of the method: (§1)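 Damage graded 0–3 from the proportion of bleached leaf area 7 days after spraying. Plants were glufosinate-selected T1 lines, 18 days after sowing, plus vector and wild-type controls. Rates: mesotrione 52.5–420, isoxaflutole 35–280, topramezone 25–200 g ai/ha, with water (0×).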

[2] = system: Arabidopsis thaliana T1 plants; test: Topramezone tolerance of transgenic Arabidopsis thaliana T1 plants (spray, bleached leaf area grade, damage score); details: Table 13; for Classification and statistics of the grade of pesticide damage Grade 0: number of plants at grade 0; for Classification and statistics of the grade of pesticide damage Grade 1: number of plants at grade 1; for Classification and statistics of the grade of pesticide damage Grade 2: number of plants at grade 2; for Classification and statistics of the grade of pesticide damage Grade 3: number of plants at grade 3; for Scores: pesticide damage score
Summary of the method: as §1

[3] = system: Arabidopsis thaliana T1 plants; test: Mesotrione tolerance of transgenic Arabidopsis thaliana T1 plants (spray, bleached leaf area grade, damage score); design: Scores: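 damage score 0-100 computed as Σ(N×S)/(T×M)×100 over grades 0-3 with higher meaning more damage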; details: for Classification and statistics of the grade of pesticide damage Grade 0 / Classification and statistics of the grade of pesticide damage Grade 1 / Classification and statistics of the grade of pesticide damage Grade 2 / Classification and statistics of the grade of pesticide damage Grade 3: number of plants in grade
Summary of the method: as §1

Molecule	Resistance evaluation ([1]; isoxaflutole 35 g ai/ha)	Scores ([1]; isoxaflutole 35 g ai/ha)	Classification and statistics of the grade of pesticide damage Grade 0 ([1]; isoxaflutole 35 g ai/ha)	Classification and statistics of the grade of pesticide damage Grade 1 ([1]; isoxaflutole 35 g ai/ha)	Classification and statistics of the grade of pesticide damage Grade 2 ([1]; isoxaflutole 35 g ai/ha)	Classification and statistics of the grade of pesticide damage Grade 3 ([1]; isoxaflutole 35 g ai/ha)	Resistance evaluation ([1]; isoxaflutole 70 g ai/ha)	Scores ([1]; isoxaflutole 70 g ai/ha)	Classification and statistics of the grade of pesticide damage Grade 0 ([1]; isoxaflutole 70 g ai/ha)	Classification and statistics of the grade of pesticide damage Grade 1 ([1]; isoxaflutole 70 g ai/ha)	Classification and statistics of the grade of pesticide damage Grade 2 ([1]; isoxaflutole 70 g ai/ha)	Classification and statistics of the grade of pesticide damage Grade 3 ([1]; isoxaflutole 70 g ai/ha)	Resistance evaluation ([2]; topramezone 25 g ai/ha (1×))	Classification and statistics of the grade of pesticide damage Grade 0 ([2]; topramezone 25 g ai/ha (1×))	Classification and statistics of the grade of pesticide damage Grade 1 ([2]; topramezone 25 g ai/ha (1×))	Classification and statistics of the grade of pesticide damage Grade 2 ([2]; topramezone 25 g ai/ha (1×))	Classification and statistics of the grade of pesticide damage Grade 3 ([2]; topramezone 25 g ai/ha (1×))	Scores ([2]; topramezone 25 g ai/ha (1×))	Resistance evaluation ([2]; topramezone 100 g ai/ha (4×))	Classification and statistics of the grade of pesticide damage Grade 0 ([2]; topramezone 100 g ai/ha (4×))	further results
AtHPPDm-F415W-02: nucleotide sequence encoding Arabidopsis thaliana HPPD with F415W; vector DBN11793 (nucleic acid, AtHPPDm-F415W-02 Nucleotide Sequence, vector DBN11793) DNA: ATGGGACATCAGAATGCTGCTGTATCAGAAAATCAAAATCATGATGATGGAGCCGCCTCCTCACCAGGGTTTAAGTTGGTTGGGTTCTCCAAGTTTGTACGGAAGAACCCAAAATCCGACAAGTTCAAGGTTAAACGCTTCCACCACATTGAATTCTGGTGCGGCGACGCCACCAATGTTGCTCGGCGTTTTTCATGGGGTTTAGGCATGAGATTCTCAGCAAAGAGTGACCTGAGCACCGGCAACATGGTTCATGCTAGCTATCTCTTAACATCTGGAGATTTGAGGTTTCTTTTCACGGCGCCGTACTCACCATCACTCTCCGCCGGCGAGATCAAACCCACCACGACTGCAAGCATACCTTCATTTGATCATGGTAGTTGCAGATCCTTCTTCTCGTCGCACGGCCTAGGGGTGCGCGCGGTCGCCATCGAAGTTGAAGATGCAGAATCAGCGTTTAGTATCAGCGTGGCAAATGGAGCTATTCCTTCCTCCCCTCCAATTGTCCTCAATGAGGCTGTAACTATTGCCGAGGTGAAGTTGTATGGAGATGTTGTGCTGAGATATGTTTCTTACAAGGCAGAGGACACTGAGAAATCTGAATTTTTGCCTGGTTTTGAAAGGGTCGAGGATGCTTCAAGTTTTCCTCTTGATTACGGCATACGACGGTTGGATCACGCGGTTGGAAATGTACCAGAACTTGGGCCGGCGCTCACTTATGTGGCTGGTTTCACTGGATTCCATCAATTTGCTGAGTTCACAGCTGATGATGTTGGGACTGCTGAAAGTGGGTTGAACTCTGCAGTCCTCGCCTCTAATGATGAAATGGTGCTCCTCCCGATCAACGAGCCTGTGCATGGCACCAAAAGGAAATCACAAATACAGACATATCTTGAGCACAATGAAGGTGCAGGGCTTCAACATCTTGCACTGATGTCTGAAGACATTTTCCGTACGCTGAGAGAGATGAGGAAGAGAAGTAGTATTGGTGGATTTGACTTCATGCCTTCTCCCCCACCAACTTACTACCAGAACTTGAAGAAGAGGGTTGGTGATGTGCTATCTGATGACCAGATCAAGGAGTGTGAAGAATTGGGCATTCTTGTTGATCGGGACGACCAAGGAACATTACTGCAGATATTTACAAAACCACTTGGTGACCGCCCCACTATTTTTATTGAGATCATACAAAGAGTCGGCTGCATGATGAAGGATGAGGAAGGAAAAGCATATCAATCTGGTGGTTGTGGCGGCTTTGGGAAAGGAAACTGGTCTGAGCTGTTCAAATCCATCGAGGAGTATGAGAAGACCTTGGAGGCCAAGCAGCTCGTGGGTTGA	Non-resistant	100	0	0	0	16	Non-resistant	100	0	0	0	16	Non-resistant	0	0	0	16	100	Non-resistant	0	Classification and statistics of the grade of pesticide damage Grade 1 ([2]; topramezone 100 g ai/ha (4×)): 0; Classification and statistics of the grade of pesticide damage Grade 2 ([2]; topramezone 100 g ai/ha (4×)): 0; Classification and statistics of the grade of pesticide damage Grade 3 ([2]; topramezone 100 g ai/ha (4×)): 16; Scores ([2]; topramezone 100 g ai/ha (4×)): 100; Resistance evaluation ([3]; mesotrione 52.5 g ai/ha): Non-resistant; Scores ([3]; mesotrione 52.5 g ai/ha): 100; Classification and statistics of the grade of pesticide damage Grade 0 ([3]; mesotrione 52.5 g ai/ha): 0; Classification and statistics of the grade of pesticide damage Grade 1 ([3]; mesotrione 52.5 g ai/ha): 0; Classification and statistics of the grade of pesticide damage Grade 2 ([3]; mesotrione 52.5 g ai/ha): 0; Classification and statistics of the grade of pesticide damage Grade 3 ([3]; mesotrione 52.5 g ai/ha): 16; Resistance evaluation ([3]; mesotrione 105 g ai/ha): Non-resistant; Scores ([3]; mesotrione 105 g ai/ha): 100; Classification and statistics of the grade of pesticide damage Grade 0 ([3]; mesotrione 105 g ai/ha): 0; Classification and statistics of the grade of pesticide damage Grade 1 ([3]; mesotrione 105 g ai/ha): 0; Classification and statistics of the grade of pesticide damage Grade 2 ([3]; mesotrione 105 g ai/ha): 0; Classification and statistics of the grade of pesticide damage Grade 3 ([3]; mesotrione 105 g ai/ha): 16
AtHPPDm-F372A-F415W-02: nucleotide sequence encoding Arabidopsis thaliana HPPD with F372A+F415W; vector DBN11794 (nucleic acid, AtHPPDm-F372A-F415W-02 Nucleotide Sequence, vector DBN11794) DNA: ATGGGACATCAGAATGCTGCTGTATCAGAAAATCAAAATCATGATGATGGAGCCGCCTCCTCACCAGGGTTTAAGTTGGTTGGGTTCTCCAAGTTTGTACGGAAGAACCCAAAATCCGACAAGTTCAAGGTTAAACGCTTCCACCACATTGAATTCTGGTGCGGCGACGCCACCAATGTTGCTCGGCGTTTTTCATGGGGTTTAGGCATGAGATTCTCAGCAAAGAGTGACCTGAGCACCGGCAACATGGTTCATGCTAGCTATCTCTTAACATCTGGAGATTTGAGGTTTCTTTTCACGGCGCCGTACTCACCATCACTCTCCGCCGGCGAGATCAAACCCACCACGACTGCAAGCATACCTTCATTTGATCATGGTAGTTGCAGATCCTTCTTCTCGTCGCACGGCCTAGGGGTGCGCGCGGTCGCCATCGAAGTTGAAGATGCAGAATCAGCGTTTAGTATCAGCGTGGCAAATGGAGCTATTCCTTCCTCCCCTCCAATTGTCCTCAATGAGGCTGTAACTATTGCCGAGGTGAAGTTGTATGGAGATGTTGTGCTGAGATATGTTTCTTACAAGGCAGAGGACACTGAGAAATCTGAATTTTTGCCTGGTTTTGAAAGGGTCGAGGATGCTTCAAGTTTTCCTCTTGATTACGGCATACGACGGTTGGATCACGCGGTTGGAAATGTACCAGAACTTGGGCCGGCGCTCACTTATGTGGCTGGTTTCACTGGATTCCATCAATTTGCTGAGTTCACAGCTGATGATGTTGGGACTGCTGAAAGTGGGTTGAACTCTGCAGTCCTCGCCTCTAATGATGAAATGGTGCTCCTCCCGATCAACGAGCCTGTGCATGGCACCAAAAGGAAATCACAAATACAGACATATCTTGAGCACAATGAAGGTGCAGGGCTTCAACATCTTGCACTGATGTCTGAAGACATTTTCCGTACGCTGAGAGAGATGAGGAAGAGAAGTAGTATTGGTGGATTTGACTTCATGCCTTCTCCCCCACCAACTTACTACCAGAACTTGAAGAAGAGGGTTGGTGATGTGCTATCTGATGACCAGATCAAGGAGTGTGAAGAATTGGGCATTCTTGTTGATCGGGACGACCAAGGAACATTACTGCAGATAGCCACAAAACCACTTGGTGACCGCCCCACTATTTTTATTGAGATCATACAAAGAGTCGGCTGCATGATGAAGGATGAGGAAGGAAAAGCATATCAATCTGGTGGTTGTGGCGGCTTTGGGAAAGGAAACTGGTCTGAGCTGTTCAAATCCATCGAGGAGTATGAGAAGACCTTGGAGGCCAAGCAGCTCGTGGGTTGA	Poorly	54	0	9	4	3	Non-resistant	100	0	0	0	16	Poorly	4	4	7	1	44	Non-resistant	0	Classification and statistics of the grade of pesticide damage Grade 1 ([2]; topramezone 100 g ai/ha (4×)): 0; Classification and statistics of the grade of pesticide damage Grade 2 ([2]; topramezone 100 g ai/ha (4×)): 3; Classification and statistics of the grade of pesticide damage Grade 3 ([2]; topramezone 100 g ai/ha (4×)): 13; Scores ([2]; topramezone 100 g ai/ha (4×)): 94; Resistance evaluation ([3]; mesotrione 52.5 g ai/ha): Poorly resistant; Scores ([3]; mesotrione 52.5 g ai/ha): 65; Classification and statistics of the grade of pesticide damage Grade 0 ([3]; mesotrione 52.5 g ai/ha): 0; Classification and statistics of the grade of pesticide damage Grade 1 ([3]; mesotrione 52.5 g ai/ha): 4; Classification and statistics of the grade of pesticide damage Grade 2 ([3]; mesotrione 52.5 g ai/ha): 9; Classification and statistics of the grade of pesticide damage Grade 3 ([3]; mesotrione 52.5 g ai/ha): 3; Resistance evaluation ([3]; mesotrione 105 g ai/ha): Non-resistant; Scores ([3]; mesotrione 105 g ai/ha): 100; Classification and statistics of the grade of pesticide damage Grade 0 ([3]; mesotrione 105 g ai/ha): 0; Classification and statistics of the grade of pesticide damage Grade 1 ([3]; mesotrione 105 g ai/ha): 0; Classification and statistics of the grade of pesticide damage Grade 2 ([3]; mesotrione 105 g ai/ha): 0; Classification and statistics of the grade of pesticide damage Grade 3 ([3]; mesotrione 105 g ai/ha): 16

Source: US20250043302A1, “MUTATED HYDROXYPHENYLPYRUVATE DIOXYGENASE POLYPEPTIDE, AND CODING GENE AND USE THEREOF” (BEIJING DABEINONG BIOTECHNOLOGY CO., LTD., priority 2021, published 2025)
